# T1: cFos bZIP domain (Homo sapiens, UniProt P01100, S177Y)
# T1 construct: His-SUMO (N, cleaved yes); made in house; host or cells: E. coli
# T1 sequence (P01100 with tags, fused parts or gaps S177Y): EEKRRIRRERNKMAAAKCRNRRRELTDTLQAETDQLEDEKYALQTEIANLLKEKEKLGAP
# T2: cJun bZIP (human, UniProt P05412 252-308, limits assumed)
# T2 chain: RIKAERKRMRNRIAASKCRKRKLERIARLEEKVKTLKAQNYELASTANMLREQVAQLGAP
# T3: cFos bZIP (human, UniProt P01100 137-193)
# T3 construct: Purified from a His-SUMO fusion with the tag cleaved off; also called cFos bZIP domain
# T3 chain: T1 sequence (P01100 with tags, fused parts or gaps S177Y)
# B1: HingeW (peptide)
# peptide: MASLEQRAEELARENEELEKEAEELVVEEDVLEEEIEQLEERNYALRKEIEDLQKQLEKLGAPHHHHHH
# notes: Recombinant, capped (MAS at the N-terminus, GAP at the C-terminus) and C-terminally 6xHis-tagged, 69 amino acids; also called peptide 1
# Experiments:
# cFos bZIP domain = target: T1, cFos bZIP domain; assay: CD spectra/thermal denaturation with cFos bZIP (off-target); type: binding; conditions: CD spectra and thermal denaturation
# Protocol: (FIG. 11D). Although this represented a negligible 1.3° C. increase in heterodimer Tm, there was crucially a much larger ΔTm for HingeW/cJun relative to the component peptide denaturation profiles than for A-FosW/cJun. The low thermal stability of the HingeW homodimer results in no observable lower baseline prior to the transition such that the Tm for this component, and thus the average, cannot be determined. However, this ΔTm can be estimated to be ˜40° C., compared to 27.5° C. for A-FosW/cJun. The TBS screen has therefore led to an optimised reduction in homodimersation more so than increased heterodimerisation with the target. This ensures that more antagonist is available as free monomer in solution and therefore in a target-dimerisation competent state. Another difference between the two denaturation profiles is the presence of a double transition for the A-FosW/cJun heterodimer, with a smaller initial transition occurring at ˜30° C.
# cJun = cJun (Homo sapiens, UniProt P05412, S292Y); assay: Isothermal titration calorimetry, Example 1 (MicroCal VP-ITC); type: binding; set-up: The same 60 amino acid c-Jun bZIP construct was used for all experiments; His-SUMO (N, cleaved yes); made in house; host or cells: E. coli; conditions: peptide 10 μM injected into cJun 1 μM, single site model; listed as HingeW
# Protocol: Using a MicroCal VP-ITC instrument (Malvern), 10 μL injections of antagonist peptide (HingeW or A-FosW) at 10 μM were injected into the cell containing cJun at 1 μM. MicroCal Origin software was used to record and analyse the heat change upon addition. Control experiments involved the injection of the antagonist peptide sample into the cell containing ITC buffer alone to determine the heat of dilution which was subtracted. The resulting binding data were fit to a one site binding model to extract the enthalpy change of binding (ΔH) and the equilibrium binding constant (KD), from which the free energy change of binding (ΔG) and the entropy change of binding (AS) was calculated (Wiseman et al., 1989). Thermodynamic parameters are presented as an average of two independent experiments with errors given as one standard deviation.
# cJun bZIP [1] = target: T2, cJun bZIP; assay: cell-based or functional assay
# cJun bZIP [2] = target: T2, cJun bZIP
# cJun bZIP [3] = target: T2, cJun bZIP
# cJun bZIP [4] = target: T2, cJun bZIP
# cJun bZIP [5] = target: T2, cJun bZIP; assay: ITC (PEAQ-ITC), peptide injected into cJun, one site model; Table 7 ITC, run at a lower temperature than the earlier 1/cJun ITC measurement
# cJun bZIP [6] = target: T2, cJun bZIP; assay: ITC, antagonist injected into cJun, one site model
# cJun bZIP [7] = target: T2, cJun bZIP; assay: CD spectra at 20 °C
# cJun bZIP [8] = target: T2, cJun bZIP; assay: ITC
# [9] = CD spectra and thermal denaturation of peptide-only samples (helicity, homodimer Tm); conditions: peptide alone
# Protocol: Circular Dichroism (CD): An Applied Photophysics Chirascan was used for CD measurements, with a 200 μL sample in a 1 mm path length CD cell. Protein/DNA samples were suspended in 150 mM potassium phosphate, 150 mM potassium fluoride and 5 mM TCEP at pH 7.4 and were equilibrated for 30 minutes before measurement. […] These scans were averaged and converted to molar residue ellipticities (MRE). Thermal denaturation experiments were performed by measuring the ellipticity at 222 nm over a 1 to 90° C. gradient at 1° C. increments. Post-melt scans at 20° C. confirmed the transitions were reversible as they overlaid within 10% of the pre-melt scan.
# Circular Dichroism (CD): An Applied Photophysics Chirascan was used for CD measurements, with a 200 μL sample in a 1 mm path length CD cell. Protein/DNA samples were suspended in 150 mM potassium phosphate, 150 mM potassium fluoride and 5 mM TCEP at pH 7.4 and were equilibrated for 30minutes before measurement. […] Thermal denaturation experiments were performed by measuring the ellipticity at 222 nm over a 1 to 90° C. gradient at 1° C. increments. Post-melt scans at 20° C. confirmed the transitions were reversible as they overlaid within 10% of the pre-melt scan.
# Peptide helicity was determined by quantifying the CD signal at 222 nm of peptide only samples. Thermal denaturation experiments were then used to determine the Tm of peptide-c-Jun heterodimers, which was used as an approximate measure of target engagement. […] The same 60 amino acid c-Jun bZIP construct was used for all experiments, regardless of antagonist peptide length.
# TRE DNA = assay: CD control: peptide with TRE DNA; type: binding
# Protocol: Circular Dichroism (CD): An Applied Photophysics Chirascan was used for CD measurements, with a 200 μL sample in a 1 mm path length CD cell. Protein/DNA samples were suspended in 150 mM potassium phosphate, 150 mM potassium fluoride and 5 mM TCEP at pH 7.4 and were equilibrated for 30 minutes before measurement. […] These scans were averaged and converted to molar residue ellipticities (MRE).
# cFos bZIP = target: T3, cFos bZIP; assay: CD spectra 190-260 nm, equimolar mixture compared with the average of the 10 µM component spectra
molecule,measurement,setting,value
B1,interaction with cFos bZIP,cFos bZIP domain,no interaction
same,Kd,cJun,14 nM
same,"IC50, EMSA of free TRE DNA band",cJun bZIP [1],9600 nM
same,TBS assay colony numbers relative to A-FosW,cJun bZIP [1],10%
same,TBS assay colony numbers relative to TRE-mDHFR alone,cJun bZIP [1],66%
same,ΔTm from component average (CD),cJun bZIP [2],~40 ° C.
same,Tm (° C.) (CD),cJun bZIP [3],71.2 ° C.
same,increase in heterodimer Tm against A-FosW/cJun,cJun bZIP [4],1.3 ° C.
same,Kd,cJun bZIP [5],0.21 nM
same,Kd,cJun bZIP [6],14.4 nM
same,TΔS (ITC),cJun bZIP [6],-9.37 kcal/mol
same,ΔG (ITC),cJun bZIP [6],-11 kcal/mol
same,ΔH (ITC),cJun bZIP [6],-20.4 kcal/mol
same,increase in α-helical content relative to the average of the two component spectra,cJun bZIP [7],82%
same,fold increase in binding affinity against A-FosW,cJun bZIP [8],6 fold
same,Fraction helicity at 20° C. (CD),[9],27.2%
same,"helicity in isolation, less helical relative to A-FosW",[9],12.9%
same,interaction with TRE DNA,TRE DNA,no interaction
same,binding result,cFos bZIP,no binding (tested: 5 µM of each peptide)

# From patent US20250188151A1, “C-JUN ANTAGONIST PEPTIDES” (The University of Bath, priority 2022, published 2025)
